Tests used:
H7C2 cells [1] = test: Quantitation of neurite outgrowth; assay type: cell-based, rat; conditions: 50 nM NGF and Dox, compared to H7C2 not treated with Dox
Description: Cell culture: PC12 cells and H7C2 cells were grown in DMEM containing 10% (v/v) horse serum and 5% (v/v) FBS (Invitrogen) at 37° C. in 90% O2/10% CO2. The differentiated neuronal phenotype of cells grown on plastic dishes coated with 10 μg/ml poly(L)-lysine (Sigma), was induced by adding nerve growth factors (NGF) (Invitrogen) for 5 days. Primary cultures from cerebral cortex of embryonic day 17rat foetuses were carried out. Dissociated cells were plated (50,000 cells per ml) on glass coverslips coated with poly(L-ornithine) and cultured in a defined medium in 95% O2/5% CO2 at 37° C. Quantitation of neurite outgrowth: Random field photographs of PC12 and H7C2 cells, in each of three wells, were analyzed with Neuron J software. The average neurite length was determined by measuring the longest neurites of at least 200 cells randomly selected.

H7C2 cells [2] = test: FKBP52 induction in H7C2 cells (Western blot); assay type: cell-based, rat; conditions: after 5 days of Dox treatment
Description: Generation of H7C2 cells: The cDNA encoding rabbit FKBP52 was inserted into the HindIII and AccI restriction sites of the pTRE2 vector (Clontech) in order to give pTRE2-FKBP52. Transfection of 100 μg of pTR2-FKBP52 and 10 μg of pTK-hygromicin was carried out in a commercially available PC12 Tet-on cell line (Clontech) that expresses the reverse tetracycline controlled transactivator, using Lipofectamine™ (Invitrogen). Stably transfected cells were selected with 100 μg/ml hygromycin and screened individually. Cell culture: PC12 cells and H7C2 cells were grown in DMEM containing 10% (v/v) horse serum and 5% (v/v) FBS (Invitrogen) at 37° C. in 90% […]/10% CO2. The differentiated neuronal phenotype of cells grown on plastic dishes coated with 10 μg/ml poly(L)-lysine (Sigma), was induced by adding nerve growth factors (NGF) (Invitrogen) for 5 days. Primary cultures from cerebral cortex of embryonic day 17rat foetuses were carried out. Dissociated cells were plated (50,000 cells per ml) on glass coverslips coated with poly(L-ornithine) and cultured in a defined medium in 95% O2/5% CO2 at 37° C.

[3] = target: T1, HP-Tau (hyperphosphorylated recombinant hT40) (Homo sapiens, UniProt P10636); test: Dot blot assay, FKBP52 captured by spotted HP-Tau; assay type: binding; conditions: 2.2 μg HP-Tau spotted; 0.5 μg FKBP52
T1 construct: made in house; host or cells: E. coli; then phosphorylated in vitro with adult rat brain cytosol in the presence of okadaic acid
T1 sequence (P10636 1-441 isoform P10636-8): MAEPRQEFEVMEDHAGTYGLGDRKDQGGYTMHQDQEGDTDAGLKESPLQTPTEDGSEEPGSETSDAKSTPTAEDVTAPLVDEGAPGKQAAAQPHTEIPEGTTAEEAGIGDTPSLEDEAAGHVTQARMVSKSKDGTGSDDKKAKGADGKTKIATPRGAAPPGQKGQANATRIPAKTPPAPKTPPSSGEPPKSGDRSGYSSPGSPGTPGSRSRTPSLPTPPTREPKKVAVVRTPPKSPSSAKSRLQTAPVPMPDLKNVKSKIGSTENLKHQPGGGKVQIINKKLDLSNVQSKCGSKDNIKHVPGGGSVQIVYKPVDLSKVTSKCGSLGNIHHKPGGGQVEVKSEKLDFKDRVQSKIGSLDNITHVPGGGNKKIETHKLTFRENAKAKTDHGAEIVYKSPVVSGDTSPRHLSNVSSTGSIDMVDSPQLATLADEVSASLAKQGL
Description: (§1) Phosphorylation and hyperphosphorylation of recombinant Tau: Rat brain extract was used as the source of kinase activity, as described (18). Briefly, recombinant hT40 was incubated with cytosol of adult rat brain, in the presence or absence of okadaic acid, to give HP-Tau (hyperphosphorylated-Tau) and P-Tau (phosphorylated-Tau), respectively.
(§2) Dot blot assay: 100 μl of buffer A containing different amounts of hT40 were applied to a nitrocellulose membrane, blocked with 5% non-fat milk in phosphate-buffered saline (PBS) containing 0.1% Tween 20 (PBS-T) at room temperature, washed with PBS-T and buffer A, followed by 2 h incubation at room temperature with 100 μl of buffer A containing […] recombinant FKBP52. The membranes were washed with buffer IP (50 mM Tris (pH 7.5)/150 mM NaCl/2 mM MgCl2/0.1% Brij97 (Sigma)/10% glycerol/protease inhibitors) and with PBS-T. After blocking with milk in PBS-T, the membranes were incubated with anti-FKBP52 761 antibody. […] Quantitation was performed with Quantity-one software using Chemidoc XRS fitted with a 16 bit CCD camera (Biorad).

[4] = target: T2, recombinant Tau protein (longest isoform) (Homo sapiens, UniProt P10636); test: Sedimentation assay of Tau polymerization in oxidative conditions; assay type: biochemical; conditions: Tau 0.5 mg/ml
T2 construct: made in house
T2 sequence (P10636 1-441 isoform P10636-8): as above
Description: To investigate the effect of FKBP52 on Tau oligomerization we monitored by sedimentation assay the ability of recombinant Tau protein (here using the longest isoform) to polymerise in oxidative conditions in presence or absence of recombinant FKBP52. After dialysis of Tau (0.5 mg/ml) overnight at 4° C. in Tris 10 mM pH7.4 and centrifugation at 14000 rpm, quantitative western blotting was used to monitor the polymerization of Tau protein. […] This experiment means that Tau in oxidative conditions self polymerise and confirms, as already reported, the importance of cysteines in first step of Tau oligomerization process (Schweers et al 1995).

[5] = target: T3, P-Tau (phosphorylated recombinant hT40) (Homo sapiens, UniProt P10636); test: Dot blot assay, FKBP52 captured by spotted P-Tau; assay type: binding; conditions: same amount (2.2 μg) P-Tau as bait; 0.5 μg FKBP52
T3 construct: made in house; host or cells: E. coli; then phosphorylated in vitro with adult rat brain cytosol without okadaic acid
T3 sequence (P10636 1-441 isoform P10636-8): as above
Description: as §1, §2

recombinant Tau (hT40) = target: T4, recombinant Tau (hT40) (Homo sapiens, UniProt P10636); test: Dot blot assay, FKBP52 captured by spotted recombinant Tau; assay type: binding
T4 construct: made in house; host or cells: E. coli
T4 sequence (P10636 1-441 isoform P10636-8): as above
Description: as §2

[6] = target: T5, tubulin polymerization induced by recombinant human Tau isoforms (Homo sapiens, UniProt P10636); test: Microtubule assembly assay (tubulin polymerization induced by recombinant Tau isoforms); assay type: biochemical, rat; conditions: tubulin 1 mg/ml, 1.7 μM Tau isoforms, 3.5 μM protein, turbidity at 345 nm
T5 construct: made in house; host or cells: Tau: E. coli; tubulin: adult Sprague-Dawley rat brain
T5 sequence (P10636 2-441 isoform P10636-8): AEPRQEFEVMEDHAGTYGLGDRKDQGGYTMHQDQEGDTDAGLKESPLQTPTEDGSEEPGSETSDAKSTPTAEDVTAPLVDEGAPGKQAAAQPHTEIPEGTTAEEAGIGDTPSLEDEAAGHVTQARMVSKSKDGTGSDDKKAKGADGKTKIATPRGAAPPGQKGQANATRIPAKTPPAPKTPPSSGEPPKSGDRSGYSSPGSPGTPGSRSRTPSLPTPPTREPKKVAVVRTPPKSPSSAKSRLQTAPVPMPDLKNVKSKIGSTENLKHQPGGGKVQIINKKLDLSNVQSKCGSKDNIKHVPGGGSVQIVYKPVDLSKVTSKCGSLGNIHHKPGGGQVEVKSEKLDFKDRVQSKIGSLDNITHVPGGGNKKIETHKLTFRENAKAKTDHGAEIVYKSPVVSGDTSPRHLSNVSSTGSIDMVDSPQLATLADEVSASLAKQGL
Description: Preparation of Tubulin and microtubule assembly assay: Male adult Sprague-Dawley rats (body weight ˜250 g) were obtained from Janvier (Le Genest-St.-Isle, France). They were killed by decapitation, according to institutional guidelines, and whole brains were used immediately to prepare tubulin as described (9). Microtubule assembly assays were performed as in (9).
Protein purification and Overexpression of different Tau isoforms and FKBP52 protein: The six isoforms of human brain Tau were expressed in E. coli from clones hT40, hT39, hT37, hT34, hT24, hT23 and purified as described (28). Full length FKBP52 was affinity purified as in (23). For the Tubulin polymerization assay, FKBP52 bound to glutathione-Sepharose beads (GE Healthcare) were cleaved overnight at 4° C. with 2 units of thrombin (GE Healthcare) and dialyzed against buffer L (0.1 M Mes, 1 mM EGTA, 1 mM MgCL2, 0.1 mM EDTA) with 10% glycerol, and complemented before use to 1 mM GTP and 1 mM DTT and 10 μM PPACK (a potent irreversible inhibitor of thrombin) (Biomol).

Row | Molecule | decrease in neurite length (H7C2 cells [1]) [%] | FKBP52 induction (H7C2 cells [2]) | FKBP52 retained by HP-Tau [3] [%] | Tau polymers in pellet ([4]; FKBP52 at 0.1 or 0.25 mg/ml) | Tau polymers in pellet ([4]; equimolecular or two times quantities of FKBP52 versus Tau) | Tau in pellet fraction ([4]; oxidative medium, equimolecular coincubation) | FKBP52 captured by P-Tau [5] [%] | FKBP52 retained by hT40 in the presence of cytosolic proteins (recombinant Tau (hT40); 2.2 μg hT40 with cytosol added just prior to spotting) [%] | FKBP52 retained by hT40 (recombinant Tau (hT40); 2.2 μg non phosphorylated hT40) [%] | retention by spotted Tau (recombinant Tau (hT40); different amounts of hT40 spotted, GST spot as control) | effect on microtubule formation induced by Tau [6]
1 | C[C@H]1c2cccc(O)c2C(=O)C2=C(O)[C@]3(O)C(=O)C(C(N)=O)=C(O)[C@@H](N(C)C)[C@@H]3[C@@H](O)[C@@H]21 [Dox, doxycycline] | 40 | about 4 fold |  |  |  |  |  |  |  |  | 
2 | FKBP52: purified recombinant full length immunophilin FKBP52 (FK506-Binding Protein), cleaved from GST with thrombin (protein, UniProt Q02790 1-459, looked up, full-length) MTAEEMKATESGAQSAPLPMEGVDISPKQDEGVLKVIKREGTGTEMPMIGDRVFVHYTGWLLDGTKFDSSLDRKDKFSFDLGKGEVIKAWDIAIATMKVGEVCHITCKPEYAYGSAGSPPKIPPNATLVFEVELFEFKGEDLTEEEDGGIIRRIQTRGEGYAKPNEGAIVEVALEGYYKDKLFDQRELRFEIGEGENLDLPYGLERAIQRMEKGEHSIVYLKPSYAFGSVGKEKFQIPPNAELKYELHLKSFEKAKESWEMNSEEKLEQSTIVKERGTVYFKEGKYKQALLQYKKIVSWLEYESSFSNEEAQKAQALRLASHLNLAMCHLKLQAFSAAIESCNKALELDSNNEKGLFRRGEAHLAVNDFELARADFQKVLQLYPNNKAAKTQLAVCQQRIRRQLAREKKLYANMFERLAEEENKAKAEASSGDHPTDTEMKEEQKSNTAGSQSQVETEA |  |  | 73 | increasing Tau polymers in pellet | prevent the presence of pelletable polymers of Tau | no detectable presence of Tau in pellet fraction | 41 | 6.6 | 3.5 | retained in a dose dependent manner | formation of microtubules was prevented
